Data from publication PMC8163987.

Biological target: cytoplasmic region of YhcB from Haemophilus ducreyi (residues 31 to 128) with I51M and L72M mutations (Haemophilus ducreyi) (UniProt Q7VLF5)
Assay: crystal structure; microbatch under paraffin oil, 2.0 M ammonium sulfate; SAD phasing of selenomethionine-labeled protein; 2.8 Å

Q: Which stoichiometry N does the source give for “cytoplasmic region of YhcB from Haemophilus ducreyi (residues 31 to 128) with I51M and L72M mutations (from UniProt Q7VLF5 31-128) (domain or fragment)” here?
A: 4
